Values belong to the binder of their own block, whether it stands above or below them.
How the values were obtained:
CD20 (on Daudi cells) = molecular target: T1, CD20 (on Daudi cells) (human, UniProt P11836 1-297); assay: cell ELISA on Daudi cells, HRP anti-human IgG, OD450
T1 construct: whole, on cells; The target is the CD20 naturally present on Daudi cells; also called antigen
T1 sequence (looked up): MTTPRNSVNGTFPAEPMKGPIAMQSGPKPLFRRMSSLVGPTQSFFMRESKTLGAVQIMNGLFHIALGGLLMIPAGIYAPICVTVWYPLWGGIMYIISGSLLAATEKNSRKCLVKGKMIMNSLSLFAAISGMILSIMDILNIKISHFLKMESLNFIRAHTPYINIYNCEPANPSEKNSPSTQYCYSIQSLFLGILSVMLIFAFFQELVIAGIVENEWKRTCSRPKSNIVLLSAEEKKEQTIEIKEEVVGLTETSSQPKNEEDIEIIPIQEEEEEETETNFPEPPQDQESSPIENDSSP
Description: Daudi cells (ATCC catalog No. CCL-213) were dispensed into a 96 well plate at a density of 6×10⁴ cells/well, each of the antibody mutants (Glu293Cys, Glu294Cys, Tyr296Cys, Ser298Cys, or Tyr300Cys) obtained in Example 1 or wild type antibody was added thereto, and a reaction was carried out at 4° C. for 1 hour. Following this, washing was carried out with 3 mM EDTA-0.5% BSA-PBS(−) (washing buffer). Subsequently, 50 μL/well of an HRP-labeled anti-human IgG antibody (Zymed) diluted 500 times with the washing buffer was added, and a reaction was carried out at 4° C. for 1 hour. Cells after the reaction were washed with the washing buffer, 100 μL/well of TMB substrate (KPL) was added thereto so as to cause coloration, the reaction was stopped by adding 100 μL/well of 1 M HCl (Wako), and the OD value at 450 nm was measured using a plate reader (VersaMax, Molecular Devices).

[1] = molecular target: T2, CD16 (NK cell Fcy receptor III), expressed on CHO-K1 cells (human, UniProt P08637 17-254); assay: flow cytometry on CD16-expressing CHO-K1 cells; biotin anti-human IgG kappa L chain antibody and PE-streptavidin
T2 construct: whole, on cells; also called CD16-expressing CHO-K1 cells
T2 sequence (P08637 17-254): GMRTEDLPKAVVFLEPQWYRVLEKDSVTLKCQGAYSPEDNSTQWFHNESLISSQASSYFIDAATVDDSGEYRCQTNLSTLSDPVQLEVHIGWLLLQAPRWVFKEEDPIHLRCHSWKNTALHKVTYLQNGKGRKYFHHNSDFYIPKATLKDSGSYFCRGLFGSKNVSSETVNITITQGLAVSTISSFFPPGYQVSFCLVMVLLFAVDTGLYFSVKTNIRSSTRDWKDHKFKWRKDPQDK
Description: CD16-expressing CHO-K1 cells were taken at 6×10⁴ cells/tube, each of the antibody mutants obtained in Example (Tyr296Cys or Ser298Cys) or wild type antibody was added thereto to give a total amount of 50 μL/tube, and a reaction was carried out at 4° C. for 1 hour. Following this, washing was carried out with 3 mM EDTA-0.5% BSA-PBS(−) (washing buffer). Subsequently, a biotin-labeled mouse anti-human IgGκ L chain antibody (Vector Lab) diluted 200 times with the washing buffer was added at 100 μL/tube. After a reaction was carried out at 4° C. for 30 min, washing was carried out with 3 mM EDTA-0.5% BSA-PBS(−), PE-labeled streptavidin (BD-Pharmingen) diluted 400 times with the washing buffer was added at 100 μL/tube, and a reaction was carried out at 4° C. for 30 min. After the reaction was completed, washing was carried out twice with 3 mM EDTA-0.5% BSA-PBS(−), and a CD16-binding anti-CD20 antibody was analyzed using a flow cytometer (FACS Caliber, BecktonDickinson).

binding result (CD20 (on Daudi cells)): binds
B1: anti-CD20 chimera antibody (wild type) (antibody, human IgG1, kappa)
heavy: not shown
light: QIVLSQSPAILSASPGEKVTMTCRASSSVSYMHWYQQKPGSSPKPWIYAPSNLASGVPARFSGSGSGTSYSLTISRVEAEDAANYYCQQWSFNPPTFGAGTKLELKTVAAPSVFIFPPSDEQLKSGTASVVCLLNNFYPREAKVQWKVDNALQSGNSQESVTEQDSKDSTYSLSSTLTLSKADYEKHKVYACEVTHQGLSSPVTKSFNRGEC
notes: Mouse anti-CD20 variable regions joined to human IgG1 H chain and human L chain constant regions; also called wild type antibody; wild type anti-CD20 chimera antibody; copies: 2 + 2

binding result (CD20 (on Daudi cells)): binds
B2: anti-CD20 chimera antibody H chain constant region amino acid mutant Glu294Cys (antibody, human IgG1, kappa)
heavy: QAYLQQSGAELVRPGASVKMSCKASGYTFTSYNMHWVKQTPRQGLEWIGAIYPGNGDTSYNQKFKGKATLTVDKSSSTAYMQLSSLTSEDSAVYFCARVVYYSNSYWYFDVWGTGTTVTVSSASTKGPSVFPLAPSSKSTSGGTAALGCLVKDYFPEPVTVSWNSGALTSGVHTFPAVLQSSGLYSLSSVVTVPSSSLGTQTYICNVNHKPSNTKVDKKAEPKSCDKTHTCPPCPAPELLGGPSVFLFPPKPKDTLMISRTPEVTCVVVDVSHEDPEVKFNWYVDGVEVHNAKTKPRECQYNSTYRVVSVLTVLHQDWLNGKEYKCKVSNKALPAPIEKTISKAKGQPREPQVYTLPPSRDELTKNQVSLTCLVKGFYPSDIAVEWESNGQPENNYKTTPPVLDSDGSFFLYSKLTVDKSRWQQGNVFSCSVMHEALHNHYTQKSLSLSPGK
light: B1 light
notes: H chain entry already carries Glu294Cys (Kabat EU index); also called Glu294Cys-modified antibody

CD16 binding activity relative to wild type (concentrations that gave the same effect) [1]: ~10 times that of the wild type
binding result (CD20 (on Daudi cells)): binds
B3: anti-CD20 chimera antibody H chain constant region amino acid mutant Ser298Cys (antibody, human IgG1, kappa)
heavy: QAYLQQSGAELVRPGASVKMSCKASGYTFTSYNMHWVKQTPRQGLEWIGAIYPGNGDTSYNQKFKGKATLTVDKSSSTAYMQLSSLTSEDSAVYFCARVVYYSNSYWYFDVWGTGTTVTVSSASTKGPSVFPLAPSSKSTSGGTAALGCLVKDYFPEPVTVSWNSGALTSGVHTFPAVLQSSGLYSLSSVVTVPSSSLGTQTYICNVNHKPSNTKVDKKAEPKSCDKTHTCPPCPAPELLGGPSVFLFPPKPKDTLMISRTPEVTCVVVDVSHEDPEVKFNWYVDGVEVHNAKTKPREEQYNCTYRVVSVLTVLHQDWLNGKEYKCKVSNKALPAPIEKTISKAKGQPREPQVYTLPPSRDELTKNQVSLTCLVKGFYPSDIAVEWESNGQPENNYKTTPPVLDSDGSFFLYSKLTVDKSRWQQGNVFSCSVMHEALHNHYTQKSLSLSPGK
light: B1 light
notes: H chain entry already carries Ser298Cys (Kabat EU index); also called Ser298Cys mutant; Ser298Cys-modified antibody; copies: 2 + 2

CD16 binding activity relative to wild type (concentrations that gave the same effect) [1]: ~5 times that of the wild type
binding result (CD20 (on Daudi cells)): binds
B4: anti-CD20 chimera antibody H chain constant region amino acid mutant Tyr296Cys (antibody, human IgG1, kappa)
heavy: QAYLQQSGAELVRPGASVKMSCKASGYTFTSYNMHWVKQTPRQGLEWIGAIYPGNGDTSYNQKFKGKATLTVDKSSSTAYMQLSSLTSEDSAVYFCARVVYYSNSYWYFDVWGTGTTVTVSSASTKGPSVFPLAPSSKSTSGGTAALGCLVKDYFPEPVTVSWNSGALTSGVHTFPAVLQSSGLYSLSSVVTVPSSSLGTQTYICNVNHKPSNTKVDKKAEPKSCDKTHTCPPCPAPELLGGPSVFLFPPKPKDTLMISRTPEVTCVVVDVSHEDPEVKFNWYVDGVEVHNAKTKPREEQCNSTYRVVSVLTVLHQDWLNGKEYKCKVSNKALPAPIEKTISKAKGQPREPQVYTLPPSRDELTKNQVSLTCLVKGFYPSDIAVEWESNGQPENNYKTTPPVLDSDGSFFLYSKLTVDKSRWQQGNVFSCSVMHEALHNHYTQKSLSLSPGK
light: B1 light
notes: H chain entry already carries Tyr296Cys (Kabat EU index); also called Tyr296Cys mutant; Tyr296Cys-modified antibody; copies: 2 + 2

binding result (CD20 (on Daudi cells)): binds
B5: anti-CD20 chimera antibody H chain constant region amino acid mutant Glu293Cys (antibody, human IgG1, kappa)
heavy: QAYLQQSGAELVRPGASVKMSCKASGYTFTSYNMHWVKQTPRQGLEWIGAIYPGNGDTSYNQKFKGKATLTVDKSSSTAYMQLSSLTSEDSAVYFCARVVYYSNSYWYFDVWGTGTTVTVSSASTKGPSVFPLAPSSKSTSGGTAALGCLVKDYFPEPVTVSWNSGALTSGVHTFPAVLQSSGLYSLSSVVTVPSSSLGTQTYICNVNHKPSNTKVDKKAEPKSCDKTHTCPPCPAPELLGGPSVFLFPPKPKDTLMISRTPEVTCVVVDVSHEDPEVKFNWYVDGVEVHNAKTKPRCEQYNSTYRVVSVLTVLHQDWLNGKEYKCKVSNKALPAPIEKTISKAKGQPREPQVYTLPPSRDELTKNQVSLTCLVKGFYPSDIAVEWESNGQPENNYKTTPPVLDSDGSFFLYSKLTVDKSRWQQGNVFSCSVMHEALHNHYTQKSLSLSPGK
light: B1 light
notes: H chain entry already carries Glu293Cys (Kabat EU index); also called Glu293Cys-modified antibody

binding result (CD20 (on Daudi cells)): binds
B6: anti-CD20 chimera antibody H chain constant region amino acid mutant Tyr300Cys (antibody, human IgG1, kappa)
heavy: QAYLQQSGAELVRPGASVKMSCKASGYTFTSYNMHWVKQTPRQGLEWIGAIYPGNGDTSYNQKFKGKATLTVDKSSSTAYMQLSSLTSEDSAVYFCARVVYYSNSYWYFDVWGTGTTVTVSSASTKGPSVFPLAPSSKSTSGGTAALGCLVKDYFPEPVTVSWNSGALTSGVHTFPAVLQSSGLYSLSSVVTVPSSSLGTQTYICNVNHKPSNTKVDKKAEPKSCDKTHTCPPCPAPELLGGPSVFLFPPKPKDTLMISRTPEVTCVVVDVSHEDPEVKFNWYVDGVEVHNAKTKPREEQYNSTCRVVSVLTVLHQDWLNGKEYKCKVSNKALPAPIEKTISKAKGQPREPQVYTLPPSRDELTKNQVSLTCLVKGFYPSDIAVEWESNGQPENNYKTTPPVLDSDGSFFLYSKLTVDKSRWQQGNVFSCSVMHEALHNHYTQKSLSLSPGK
light: B1 light
notes: H chain entry already carries Tyr300Cys (Kabat EU index); also called Tyr300Cys-modified antibody

From US20100306864A1 (OTSUKA CHEMICAL, published 2010)
